Measured values published in patent publication US20250340608A1 (PROTAGONIST THERAPEUTICS, published 2025).
Primed or numbered codes have the meaning given here. * marks the point of attachment. PEG8″ = PEG8 spacer conjugated to the Lys side chain; Cyclohexanecarbonyl = O=C(C1CCCCC1)*; Palmitoyl = CCCCCCCCCCCCCCCC(=O)*; Me3Gly = C[N+](C)(C)CC(=O)*; Isovaleryl = CC(C)CC(=O)*; PEG2′ = not defined here; PEG3′ = not defined here; PEG4′ = not defined here

T1: human ferroportin (SLC40A1) fused in frame with GFP, stably expressed in HEK293 cells (human, UniProt Q9NP59 1-571)
T1 sequence (looked up): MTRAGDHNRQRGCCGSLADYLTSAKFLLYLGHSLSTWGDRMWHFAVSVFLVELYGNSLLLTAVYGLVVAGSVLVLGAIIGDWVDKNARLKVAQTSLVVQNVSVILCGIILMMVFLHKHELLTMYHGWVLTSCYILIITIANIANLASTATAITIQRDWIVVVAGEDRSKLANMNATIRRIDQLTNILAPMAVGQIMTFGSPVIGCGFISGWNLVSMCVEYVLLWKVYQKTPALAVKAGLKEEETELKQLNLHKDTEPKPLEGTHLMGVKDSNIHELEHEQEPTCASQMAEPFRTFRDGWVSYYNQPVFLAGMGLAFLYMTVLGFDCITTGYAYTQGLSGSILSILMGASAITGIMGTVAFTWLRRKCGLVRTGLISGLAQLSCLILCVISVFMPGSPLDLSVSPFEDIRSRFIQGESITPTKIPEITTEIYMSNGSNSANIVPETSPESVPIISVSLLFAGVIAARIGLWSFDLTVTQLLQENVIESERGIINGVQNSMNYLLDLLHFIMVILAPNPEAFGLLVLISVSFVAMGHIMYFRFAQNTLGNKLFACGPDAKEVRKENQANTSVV


molecular target: T1, human ferroportin (SLC40A1) fused in …; assay: cell-based or functional assay

| Potency EC50 [µM] | Binder |
| --- | --- |
| 0.015 | Isovaleryl-DTHFPCIKFEPRSKGWVCK-NH2 (not fully specified (bridges); cysteine pairing not given here) [Compound 181] |
| 0.03 | Isovaleryl-DTHFPCIKFGPRSCK-NH2 (cysteine pairing not given here) [Compound 188] |
| 0.017 | Isovaleryl-DTHFPCIKFEPRSKGWCK-NH2 (not fully specified (bridges); cysteine pairing not given here) [Compound 183] |
| 0.08 | Isovaleryl-DTHFPCIKFC-NH2 (cysteine pairing not given here) [Compound 193] |
| 0.009 | Isovaleryl-DTHFPCIIFGPRSRGWVCK(PEG2′)-NH2 (not fully specified (bridges); cysteine pairing not given here) [Compound 180] |
| 0.004 | Isovaleryl-DTHFPCIIFGPRSRGWVCK(PEG4′)-NH2 (not fully specified (bridges); cysteine pairing not given here) [Compound 179] |
| 0.004 | Isovaleryl-DTHFPCIK(Palmitoyl)FGPRSKGWVCK-NH2 (cysteine pairing not given here) [Compound 194] |

Second part, the binder before the results:

| Binder | Potency EC50 [µM] |
| --- | --- |
| Isovaleryl-DTHFPCIIFGPRSKGWECK-NH2 (not fully specified (bridges); cysteine pairing not given here) [Compound 172] | 0.015 |
| Isovaleryl-DTHFPCIKFGPRSKGWVCK(Me3Gly)-NH2 (cysteine pairing not given here) [Compound 159] | 0.017 |
| Isovaleryl-DTHFPCIKFGPRSK(Me3Gly)GWVCK-NH2 (cysteine pairing not given here) [Compound 157] | 0.018 |
| Cyclohexanecarbonyl-DTHFPCIKFGPRSKGWVCK-NH2 (not fully specified (bridges); cysteine pairing not given here) [Compound 168] | 0.03 |
| Isovaleryl-DTHFPICIFGPRSK(PEG4′)GWVC-NH2 (not fully specified (bridges); cysteine pairing not given here) [Compound 177] | 0.006 |
| Isovaleryl-DTHFPCIIFGPRSRGWVCK(PEG8″)-NH2 (not fully specified (bridges); cysteine pairing not given here) [Compound 178] | 0.003 |
| {Isovaleryl-PEG3′}-DTHFPCIKFGPRSKGWVCK-NH2 (cysteine pairing not given here) [Compound 161] | 0.666 |
| Isovaleryl-DTHFPICIFGPRSK(PEG8″)GWVC-NH2 (not fully specified (bridges); cysteine pairing not given here) [Compound 176] | 0.006 |
| H-VDTHFPCIKFGPRSKGWVCK-NH2 (cysteine pairing not given here) [Compound 164] | 0.146 |
